This passage reports percent of IκBα bound to p65 results from article PMC8968458.

The assay has as its target NF-κB protein p65 (endogenous) (human (endogenous in PC-3)), Q04206. The experiment in a line: immuno-depletion. The conditions noted are these: remark: other sources report otherwise.

Chain of NF-κB protein p65 (endogenous) (human (endogenous in PC-3)), Q04206 (Q04206 whole entry): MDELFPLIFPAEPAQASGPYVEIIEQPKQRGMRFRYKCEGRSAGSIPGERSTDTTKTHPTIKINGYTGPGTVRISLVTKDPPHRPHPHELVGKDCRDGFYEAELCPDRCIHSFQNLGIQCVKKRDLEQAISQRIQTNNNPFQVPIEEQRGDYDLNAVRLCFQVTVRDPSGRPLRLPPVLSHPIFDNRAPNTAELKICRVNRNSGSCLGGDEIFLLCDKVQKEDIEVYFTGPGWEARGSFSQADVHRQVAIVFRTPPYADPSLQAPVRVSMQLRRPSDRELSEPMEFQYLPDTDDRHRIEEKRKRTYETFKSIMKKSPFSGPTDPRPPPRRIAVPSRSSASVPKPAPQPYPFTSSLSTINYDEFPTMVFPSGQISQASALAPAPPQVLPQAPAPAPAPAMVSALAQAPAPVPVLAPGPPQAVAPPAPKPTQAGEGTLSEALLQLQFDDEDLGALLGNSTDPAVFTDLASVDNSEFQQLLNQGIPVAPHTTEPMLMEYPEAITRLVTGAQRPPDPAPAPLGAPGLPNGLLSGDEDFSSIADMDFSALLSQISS

B1: IκBα (endogenous), P25963 1-317 (natural protein)
chain: MFQAAERPQEWAMEGPRDGLKKERLLDDRHDSGLDSMKDEEYEQMVKELQEIRLEPQEVPRGSEPWKQQLTEDGDSFLHLAIIHEEKALTMEVIRQVKGDLAFLNFQNNLQQTPLHLAVITNQPEIAEALLGAGCDPELRDFRGNTPLHLACEQGCLASVGVLTQSCTTPHLHSILKATNYNGHTCLHLASIHGYLGIVELLVSLGADVNAQEPCNGRTALHLAVDLQNPDLVSLLLKCGADVNRVTYQGYSPYQLTWGRPSTRIQQQLGQLTLENLQMLPESEDEESYDTESEFTEFTEDELPYDDCVFGGQRLTL
In turn, B1 came in with a percent of IκBα bound to p65 of 63%.
